Measured values reported in US8604172B2, “Humanized antibody compositions and methods for binding lysophosphatidic acid” (Lpath, Inc., priority 2009, dated 2013).

Experiments:
[1] = Competition ELISA (18:1 LPA coat), competitor 18:2 LPA; format: binding; conditions: maximum inhibition
Method: (§1) Many isoforms of LPA have been identified to be biologically active and it is preferable that the mAb recognize all of them to some extent to be of therapeutic relevance. The specificity of the anti-LPA mAbs was evaluated utilizing a competition assay in which the competitor lipid was added to the antibody-immobilized lipid mixture.
(§2) Competition ELISA assays were performed with the anti-LPA mAbs to assess their specificity. 18:1 LPA was captured on ELISA plates. Each competitor lipid (up to 10 uM) was serially diluted in BSA (1 mg/ml)-PBS and then incubated with the mAbs (3 nM). Mixtures were then transferred to LPA coated wells and the amount of bound antibody was measured with a secondary antibody. Data are normalized to maximum signal (A450) and are expressed as percent inhibition. Assays were performed in triplicate. IC50: Half maximum inhibition concentration; MI: Maximum inhibition (% of binding in the absence of inhibitor); - - -: not estimated because of weak inhibition. A high inhibition result indicates recognition of the competitor lipid by the antibody.

[2] = Competition ELISA (18:1 LPA coat), competitor 16:0 LPA; format: binding; conditions: maximum inhibition
Method: as §1, §2

[3] = system: microblood vessel density in matrigel plugs; assay: Matrigel plug assay (VEGF/bFGF), CD31 microvessel density; format: in vivo, C57BL/6 mice; conditions: for Percent Inhibition: vs control
Method: Female C57BL/6 mice around 8 to 10-weeks old and Matrigel Matrix High Concentration purchased from BD BioSciences (Franklin Lakes, N.J. (from BD) mixed with 50 ng/ml VEGF and 50 ng/ml bFGF, heparin 3 ng/ml as angiogenic stimuli were used for this study. There were five groups of mice, 10 Matrigel plugs were inoculated into five mice for each group on Day 0. One mouse group served as a control; four others receive drug treatment in four different doses by ip injection every other day. All treatments start at Day-1 and finish at Day 8.
Thirty C57bl/6 mice were implanted with Matrigel plugs in order to obtain 25 healthy mice with two well-shaped Matrigel plugs per mouse. On Day 0, 500 ul Matrigel at […] was subcutaneously injected to each side of the mouse, injection area was shaved. To increase the contact area of injected Matrigel into subcutaneous tissues and form a round shape plug, a wide subcutaneous pocket was formed by swaying the needlepoint right and left after a routine subcutaneous insertion. The injection was done rapidly with an appropriate size needle (21G-25G) to ensure the entire content was delivered in one plug. The injected Matrigel rapidly formed a single solid gel plug.
Animals were treated with 8 or 2 mg/kg of antibody or saline beginning 1 day prior to the implantation of Matrigel plugs or with the vehicle. Treatments were administered ip, on a q2d schedule.
Plugs from each group were collected at Day 12. The mice were euthanized and mouse skin was pulled back to expose the plug. The plugs was dissected out and fixed for histological analysis. Sections of 5 μm from paraffin-embedded plugs were stained with anti-CD-31 antibodies. Blood vessel density in a cross sectional area of each Matrigel plugs were analyzed. For each treatment group, at least six or more Matrigel plugs were quantitatively analyzed to assess any statistical significant difference of microvessel density between groups.

SKOV3 tumor = assay: SKOV3 ovarian tumor progression in nude mice; format: in vivo; conditions: with lowering of serum and ascites IL-8, IL-6, GM-CSF
Method: Human mAb LT3015 reduced ovarian tumor SKOV3 progression and circulating cytokines in biological fluids. Nude mice were engrafted with either 10 mg/kg LT3015, vehicle, or 2 mg/kg paclitaxel (Taxol). After 56 days, mice were sacrificed and the peritoneal cavities were analyzed for tumor burden and ascites fluid accumulation. Tumors were harvested and final tumor weights were determined along with ascites volumes. Data were analyzed by ANOVA and student's t-test analysis. […] Serum and ascites levels of IL-6, IL-8, GM-CSF and VEGF were measured using ELISA kits from R&D systems, Minneapolis Minn.

[4] = LPA competition ELISA (C18:0 LPA coat); format: binding; conditions: LPC, PA, 14:0 and 18:1 LPA, cPA, PC
Method: The specificity of the humanized antibody was determined by competition ELISA. C18:0 LPA coating material was diluted to 0.33 ug/ml with carbonate buffer (100 mM NaHCO3, 33.6 mM Na2CO3, pH 9.5). Plates were coated with 100 ul/well of coating solution and incubated at 37° C. for 1 hour. The plates were washed 4 times with PBS ([…], pH 7.4) and blocked with 150 ul/well of PBS, 1% BSA, 0.1% tween-20 for 1 h at room temperature. The humanized, anti-LPA antibodies were tested against lipid competitors (14:0 LPA (Avanti, Cat. No 857120), 18:1 LPA (Avanti, Cat. No 857130), 18:1 LPC (Avanti, Cat. No 845875), cLPA (Avanti, Cat. No 857328), 18:1 PA (Avanti, Cat. No 840875), PC (Avanti, Cat. No 850454) at 5 uM, 2.5 uM, 1.25 uM, 0.625 uM, and 0.0 uM. The antibody was diluted to 0.5 ug/ml in PBS, 0.1% tween-20 and combined with the lipid samples at a 1:3 ratio of antibody to sample on a non-binding plate. The plates were washed 4 times with PBS and incubated for 1 hour at room temperature with 100 ul/well of the primary antibody/lipid complex. Next the plates were washed 4 times with PBS and incubated for 1 h at room temperature with 100 […] of HRP-conjugated goat anti-human antibody diluted 1:20,000 in PBS, 1% BSA, 0.1% tween-20. […] The optical density (OD) was measured at 450 nm using a Thermo Multiskan EX. […]

B1: LT3000: Murine anti-LPA monoclonal antibody clone B7, IgG1k, renamed Lpathomab, also known as LT3000; hybridoma 504B7.1, ATCC PTA-8420 (antibody, V domains shown)
VH: QVQLQQSGAELVRPGTSVKVSCKASGYGFINYLIEWIKQRPGQGLEWIGLINPGSDYTNYNENFKGKATLTADKSSSTAYMHLSSLTSEDSAVYFCARRFGYYGSGNYFDYWGQGTTLTVSS
VL: DVVMTQTPLSLPVSLGDQASISCTSGQSLVHINGNTYLHWYLQKPGQSPKLLIYKVSNLFSGVPDRFSGSGSGTDFTLKISRVEAEDLGVYFCSQSTHFPFTFGTGTKLEIK
MI, 18:2 LPA [1]: 100%
MI, 16:0 LPA [2]: 62.9%
microblood vessel density, Average ([3]; 2 mg/kg ip q2d): 34
Percent Inhibition ([3]; 2 mg/kg ip q2d): 47.0%
microblood vessel density, Average ([3]; 8 mg/kg ip q2d): 41.5
Percent Inhibition ([3]; 8 mg/kg ip q2d): 35.4%
SKOV3 tumor progression (SKOV3 tumor): significantly reduced
cross-reactivity [4]: no cross-reactivity
